Positions count from the first letter of the chain named.
B1: モノクローナル抗体 6B3 (antibody, V domains shown)
VH: VKLQQSGAELVKPGASVKLSCKASGYTFTSYWMHWVKQRPGQGLEWIGEINPSNGRSNYKEKFKFKATLTVDKSSRTAYMQLSSLTSEDSAVYYCARGASWFAYWGQGTTVTVSS
VL: QIVLTQSPAIMSASPGEKVTISCSASSSVSYMYWYQQKPGSSPKPWIYRTSNLASGVPARFSGSGSGTSYSLTISSMEAEDAATYYCQQYHSYPRTFGGGTKLEIKR
B2: モノクローナル抗体 11G4 (antibody, V domains shown)
VH: B1 VH with Q5E, A15T, S84R
VL: ENVLTQSPTIMAASLGQKVTMTCSATSNVSSSYLHWYQQKSGASPKPLIHRTSDLASGVPTRFSGSGSGTSYSLTITSVEAEDDATYYCQQWSGYPFTFGAGTKLELKR

Key:
[1] = target: グリセルアルデヒド由来AGEs含有マウス血清アルブミン (Glycer-AGEs-MSA) (mouse) (UniProt P07724); test: SPR, Biacore T200; Glycer-AGEs-MSA amine-coupled on CM5 chip, antibody 0.001-100 nM as analyte
Chain of UniProt P07724 (P07724 25-608, form in doubt): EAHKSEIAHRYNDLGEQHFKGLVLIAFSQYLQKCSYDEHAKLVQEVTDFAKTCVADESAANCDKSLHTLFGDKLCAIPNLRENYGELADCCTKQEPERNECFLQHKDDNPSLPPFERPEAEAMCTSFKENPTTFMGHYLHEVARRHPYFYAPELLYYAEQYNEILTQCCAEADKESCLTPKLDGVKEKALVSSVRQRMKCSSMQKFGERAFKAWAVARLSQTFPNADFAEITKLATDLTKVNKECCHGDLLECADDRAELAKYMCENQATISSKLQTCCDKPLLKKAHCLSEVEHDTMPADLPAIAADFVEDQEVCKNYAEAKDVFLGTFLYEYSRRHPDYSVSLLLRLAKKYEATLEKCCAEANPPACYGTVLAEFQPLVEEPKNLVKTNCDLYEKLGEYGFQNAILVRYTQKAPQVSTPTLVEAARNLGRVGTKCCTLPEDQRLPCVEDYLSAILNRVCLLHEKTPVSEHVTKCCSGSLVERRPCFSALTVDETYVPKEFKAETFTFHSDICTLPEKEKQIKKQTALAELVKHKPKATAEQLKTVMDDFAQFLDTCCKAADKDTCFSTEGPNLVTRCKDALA

[2] = target: グリセルアルデヒド由来AGEs含有マウス血清アルブミン (Glycer-AGEs-MSA) (mouse) (UniProt P07724); test: SPR, Biacore T200; Glycer-AGEs-MSA amine-coupled on CM5 chip, antibody 0.8-800 nM as analyte

Binder	Kd [1]	Kd [2]
B1	47.6 nM	
B2		376 nM

— patent JP2019041668A
